What was measured:
[1] = format: in vitro ADME, human
Protocol: A potential degradation of the compounds was investigated by serum stability assay. For this, 100 µL of the prepared PBS solution (containing 1.2 nmol of pHLIP and 7.4 MBq/200 µCi) was added to 900 µL of human serum (heat inactivated from Millipore Sigma) and incubated for seven days at 37°C. The release of free ^89Zr^4+ was measured by radio instant thin-layer chromatography (as described above) and the degradation of the whole construct was checked by radio high-performance liquid chromatography (HPLC). The analytical reverse-phase HPLC was performed on a Shimadzu system equipped with a Flow Count PIN diode radiodetector from BioScan, a DGU-20A degasser, two LC-20AB pumps, and an SPD-M20A photodiode array detector. A BetaBasic 18 column (150 Å, 5.0 µm, 4.6×150 mm, Thermo Scientific) was used with water (+ 0.1% trifluoroacetic acid) and acetonitrile (+ 0.1% trifluoroacetic acid) as solvents. The gradient started at 5% acetonitrile and increased to 95% over 15 minutes at a constant flowrate of 1 mL/min. The radiochemical purities of all ^89Zr-radiolabeled pHLIP conjugates were greater than 90% over the course of seven days.

4T1 tumor allografts [2] = assay: in vivo; parameters: species or system female athymic nude mice; conditions: mouse, iv
Protocol: (§1) The media were provided by the MSK Media Preparation Core. […] Another aliquot was diluted with the medium so that 50 µL contained 1×10^6 cells.
(§2) The imaging and biodistribution studies were performed with male (RM-1 model) and female (4T1 model) athymic nude mice and the kidney-blocking experiments were performed with female SCID mice received from Charles River Laboratories (Stone Ridge, NY). After arrival, the mice were kept in the MSK vivarium for one week before any experimental handling was performed. The animals were allowed free access to water and food, and all animal care and experimental procedures were approved by the Institutional Animal Care and Use Committee (IACUC). For the subcutaneous allografts, a 1-to-1 ratio of Corning Matrigel Matrix and the cell solution was prepared and stored on ice for the injections. Each mouse received a subcutaneous injection of 100 µL (50 µL cell solution, viability > 90%, + 50 µL Matrigel) into the flank on the level of the right shoulder. The injections were performed under anesthesia (2% isoflurane, Baxter Healthcare, Deerfield, IL, USA).
(§3) The mice were intravenously injected (tail vein) with the radiolabeled pHLIP conjugates (1.2 nmol, 7.4 MBq/200 µCi, 100 µL, in sterile filtered PBS). The activity of the syringe prior to injection and after injection was used to determine the percent of injectate administered.
(§4) For the biodistribution studies the tumor-bearing mice were randomized before the injections. Only mice with suitable tumors (150–300 mm^3) were utilized. An exception was made for the 120-hour timepoint, for which only mice with smaller tumors (150 mm^3) were selected. The mice were grouped in cohorts of four. At the respective timepoint, the mice were euthanized (by CO2 asphyxiation, followed by cervical dislocation) and their blood was collected by cardiac puncture as a terminal procedure, followed by quick removal of the tumors. After this, the other organs/samples were collected. […] The exact activities of all samples of one mouse were determined by an Capintec® CRC-55tR dose calibrator. These decay-corrected measurements were used to determine a calibration factor and calibrate all counts to the corresponding activities. Activity concentrations were calculated as percentage injected dose per tissue weight (%ID/g wet tissue). All data was processed and visualized using Origin 8.5.

in vivo = assay: in vivo; parameters: species or system female athymic nude mice; conditions: female, athymic nude, mouse, iv, 1.2 nmol, total radioactivity
Protocol: as §1, §2, §3, §4

[3] = Post-mortem biodistribution, RM-1 tumor model; format: in vivo, male athymic nude mice; conditions: male, athymic nude, mouse, in vivo, iv, 1.2 nmol, total radioactivity
Protocol: as §1, §2, §3, §4

4T1 tumor allografts [4] = tested on: 4T1 tumor allografts; parameters: species or system female athymic nude mice; conditions: mouse, in vivo, iv

## CC(=O)N(O)CCCCCNC(=O)CCC(=O)N(O)CCCCCNC(=O)CCC(=O)N(O)CCCCCNC(=O)CCN1C(=O)CC(SC[C@@H](NC(=O)[C@@H](C)N)C(=O)N[C@H](CC(=O)O)C(=O)N[C@H](CC(=O)O)C(=O)N[C@H](CCC(N)=O)C(=O)N[C@H](CC(N)=O)C(=O)N2CCC[C@@H]2C(=O)N[C@H](Cc2c[nH]c3ccccc23)C(=O)N[C@H](CCCNC(=N)N)C(=O)N[C@H](C)C(=O)N[C@H](Cc2ccc(O)cc2)C(=O)N[C@H](CC(C)C)C(=O)N[C@H](CC(=O)O)C(=O)N[C@H](CC(C)C)C(=O)N[C@H](CC(C)C)C(=O)N[C@H](Cc2ccccc2)C(=O)N2CCC[C@@H]2C(=O)N[C@@H](C(=O)N[C@H](CC(=O)O)C(=O)N[C@@H](C(=O)N[C@H](CC(C)C)C(=O)N[C@H](CC(C)C)C(=O)N[C@H](CC(C)C)C(=O)N[C@H](CC(=O)O)C(=O)N[C@H](CC(C)C)C(=O)N[C@H](CC(C)C)C(=O)N[C@H](Cc2c[nH]c3ccccc23)C(=O)O)[C@H](C)O)[C@H](C)O)C1=O (stereo partly drawn) (89Zr complex, metal not drawn) [DFO-Cys-Var3]
[1]
  radiochemical purity after incubation in human serum: > 90%
4T1 tumor allografts [2]
  (biological) blood clearance half-life: 16.0 ± 0.4 hours
In vivo; Blood uptake
  tissue uptake at 4 h: 16.1 ± 0.6 %ID/g
  tissue uptake at 24 h: 5.8 ± 0.5 %ID/g
  tissue uptake at 48 h: 2.2 ± 0.1 %ID/g
  tissue uptake at 72 h: 1 ± 0.1 %ID/g
  tissue uptake at 120 h: 0.2 ± 0.05 %ID/g
In vivo; Heart uptake
  tissue uptake at 4 h: 4.2 ± 0.5 %ID/g
  tissue uptake at 24 h: 3 ± 0.4 %ID/g
  tissue uptake at 48 h: 2.6 ± 0.1 %ID/g
  tissue uptake at 72 h: 1.9 ± 0.2 %ID/g
  tissue uptake at 120 h: 1.6 ± 0.3 %ID/g
In vivo; Kidneys uptake
  tissue uptake at 4 h: 19.8 ± 3.3 %ID/g
  tissue uptake at 24 h: 44.3 ± 6.5 %ID/g
  tissue uptake at 48 h: 47.6 ± 11.5 %ID/g
  tissue uptake at 72 h: 46.3 ± 8.3 %ID/g
  tissue uptake at 120 h: 35.3 ± 5.9 %ID/g
In vivo; Liver uptake
  tissue uptake at 4 h: 4.8 ± 0.4 %ID/g
  tissue uptake at 24 h: 6.1 ± 0.7 %ID/g
  tissue uptake at 48 h: 6.6 ± 0.1 %ID/g
  tissue uptake at 72 h: 6.7 ± 0.7 %ID/g
  tissue uptake at 120 h: 6 ± 0.3 %ID/g
In vivo; Lungs uptake
  tissue uptake at 4 h: 11.2 ± 2 %ID/g
  tissue uptake at 24 h: 3.8 ± 0.9 %ID/g
  tissue uptake at 48 h: 2.7 ± 0.3 %ID/g
  tissue uptake at 72 h: 2 ± 0.1 %ID/g
  tissue uptake at 120 h: 1.8 ± 0.3 %ID/g
In vivo; Pancreas uptake
  tissue uptake at 24 h: 1.8 ± 0.2 %ID/g
  tissue uptake at 48 h: 1.5 ± 0.4 %ID/g
  tissue uptake at 72 h: 1.5 ± 0.2 %ID/g
  tissue uptake at 120 h: 1.4 ± 0.1 %ID/g
In vivo; Skin uptake
  tissue uptake at 4 h: 2.7 ± 0.6 %ID/g
  tissue uptake at 24 h: 3.7 ± 0.4 %ID/g
  tissue uptake at 48 h: 3.9 ± 0.7 %ID/g
  tissue uptake at 72 h: 3.5 ± 0.6 %ID/g
  tissue uptake at 120 h: 3.7 ± 0.1 %ID/g
In vivo; Spleen uptake
  tissue uptake at 4 h: 2.7 ± 0.5 %ID/g
  tissue uptake at 24 h: 4.1 ± 0.7 %ID/g
  tissue uptake at 48 h: 5.1 ± 2 %ID/g
  tissue uptake at 72 h: 4.3 ± 0.4 %ID/g
  tissue uptake at 120 h: 6.1 ± 1 %ID/g
In vivo; Tibia uptake
  tissue uptake at 4 h: 1.8 ± 0.2 %ID/g
  tissue uptake at 24 h: 1.8 ± 0.06 %ID/g
  tissue uptake at 48 h: 1.5 ± 0.4 %ID/g
  tissue uptake at 72 h: 1.6 ± 0.2 %ID/g
In vivo; Tumor uptake
  tissue uptake at 4 h: 5.6 ± 0.8 %ID/g
  tissue uptake at 24 h: 9.4 ± 1.2 %ID/g
  tissue uptake at 48 h: 9.7 ± 1.7 %ID/g
  tissue uptake at 72 h: 9.1 ± 1 %ID/g
  tissue uptake at 120 h: 6.8 ± 0.7 %ID/g
[3]; RM-1, male athymic nude mice, 48 h p.i., i.v. 1.2 nmol, 7.4 MBq, gamma counting, mean ± S.D., n=4, read-out: Brain uptake
  tissue uptake at 48 h: 0.08 ± 0.01 %ID/g
[3]; RM-1, male athymic nude mice, 48 h p.i., i.v. 1.2 nmol, 7.4 MBq, gamma counting, mean ± S.D., n=4, read-out: Pancreas uptake
  tissue uptake at 48 h: 0.7 ± 0.1 %ID/g
[3]; Tibia uptake
  tissue uptake at 48 h: 1.4 ± 0.1 %ID/g
4T1 tumor allografts [4]
  biological half-life for total body excretion: 415 ± 10 hours
